Assay results taken from PMC4039629.

Experiments:
[1] = molecular target: GST-MYC(1-263) (human); assay: pull-down + cross-linking
[2] = molecular target: GST-MYC 1-98 (human); assay: pull-down
[3] = molecular target: GST-MYC(2-108) E[54,100]A (human); assay: pull-down
[4] = molecular target: GST-MYC(2-108) E54A (human); assay: pull-down
[5] = molecular target: GST-MYC(2-108) E100A (human); assay: pull-down

Row | Substance | percent of the protein in the extract crosslinked [1] [%] | percent reduction of GCN5 binding on deletion of residues 99-108 [2] [%] | percent reduction of GCN5 binding against wt GST-MYC(2-108) [3] [%] | percent reduction of GCN5 binding against wt GST-MYC(2-108) [4] [%] | percent reduction of GCN5 binding against wt GST-MYC(2-108) [5] [%]
1 | GCN5 acetyltransferase, endogenous in HeLa cells (from UniProt Q92830 1-837) (enzyme) | 1 | – | – | – | –
2 | purified recombinant human GCN5-S (pRSETA-His6-GCN5-S) (enzyme) | – | 90 | 50 | 40 | 20
3 | transcription/transformation-associated protein (TRRAP), endogenous in HeLa cells (from UniProt Q9Y4A5 1-3859) (natural protein) | 1 | – | – | – | –
